Experimental data as given in ChEMBL document CHEMBL3576833, “Design and Synthesis of Acetylenyl Benzamide Derivatives as Novel Glucokinase Activators for the Treatment of T2DM” (ACS Med Chem Lett, 2015).

Compound: COC[C@H](C)Oc1cc(C#Cc2cccc(N)c2)cc(C(=O)Nc2ccn(C)n2)c1
Experiment: Activation of recombinant human pancreatic glucokinase using 10 mM glucose as substrate assessed as enzyme Vmax by G6PDH coupled assay

B1: Hexokinase-4 (Homo sapiens), P35557 (protein)
chain: MLDDRARMEAAKKEKVEQILAEFQLQEEDLKKVMRRMQKEMDRGLRLETHEEASVKMLPTYVRSTPEGSEVGDFLSLDLGGTNFRVMLVKVGEGEEGQWSVKTKHQMYSIPEDAMTGTAEMLFDYISECISDFLDKHQMKHKKLPLGFTFSFPVRHEDIDKGILLNWTKGFKASGAEGNNVVGLLRDAIKRRGDFEMDVVAMVNDTVATMISCYYEDHQCEVGMIVGTGCNACYMEEMQNVELVEGDEGRMCVNTEWGAFGDSGELDEFLLEYDRLVDESSANPGQQLYEKLIGGKYMGELVRLVLLRLVDENLLFHGEASEQLRTRGAFETRFVSQVESDTGDRKQIYNILSTLGLRPSTTDCDIVRRACESVSTRAAHMCSAGLAGVINRMRESRSEDVMRITVGVDGSVYKLHPSFKERFHASVRRLTPSCEITFIESEEGSGRGAALVSAVACKKACMLGQ
- Vmax: 126%
